From US20040002127A1 (CHISSO, published 2004)

Biological target: T1, 35 kDa protein of Oplophorus luciferase (native, purified from Oplophorus gracilirostris) (Oplophorus gracilirostris, UniProt Q9GV46 40-359)
T1 sequence: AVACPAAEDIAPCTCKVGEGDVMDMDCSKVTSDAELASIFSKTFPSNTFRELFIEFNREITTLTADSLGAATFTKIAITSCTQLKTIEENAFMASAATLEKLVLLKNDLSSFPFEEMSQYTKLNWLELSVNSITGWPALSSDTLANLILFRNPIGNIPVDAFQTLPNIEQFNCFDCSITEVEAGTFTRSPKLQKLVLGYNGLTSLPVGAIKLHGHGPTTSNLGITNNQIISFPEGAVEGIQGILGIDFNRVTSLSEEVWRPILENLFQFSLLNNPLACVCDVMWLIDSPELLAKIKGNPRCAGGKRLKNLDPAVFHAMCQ
Assay: gel filtration of native luciferase (about 106 kDa) against SDS-PAGE and SDS gel filtration HPLC (35 kDa and 19 kDa components)
Experimental: The deep-sea luminous shrimp (Oplophorus gracilirostris) obtained in the Suruga Bay, Shizuoka, Japan were used as a starting material. A crude extract containing Oplophorus luciferase was prepared in the same manner as disclosed by Shimomura, et al., in Biochemistry 17 (1978) and further purified by chromatography in two steps. The first step was by hydrophobic interaction chromatography on a column of butyl Sepharose 4 Fast Flow (Pharmacia; 0.7 cm×3.5 cm) using 20 mM Tris-HCl, pH 8.5, eluting with decreasing concentrations of ammonium sulfate starting at 1.5 M. The second step was by gel filtration on a column of Superdex 200 Prep (Pharmacia; 1 cm×48 cm) in 20 mM Tris-HCl, pH 8.5, containing 50 mM NaCl. The molecular weight of Oplophorus luciferase was estimated to be about 106 kDa by gel filtration on the same column when compared with the molecular weight markers as follows: (a) amylase (200 kDa); (b) alcohol dehydrogenase (150 kDa); (c) bovine serum albumin (67 kDa); (d) ovalbumin (45 kDa); (e) carbonic anhydrase (29 kDa); and (f) ribonuclease (13.7 kDa).
SDS-PAGE analysis (12% polyacrylamide gel) of the purified samples gave two major protein bands corresponding to molecular weights of 35 kDa and 19 kDa, respectively. […]

B1: 19 kDa protein of Oplophorus luciferase (native, purified from Oplophorus gracilirostris) (enzyme)
chain: FTLADFVGDWQQTAGYNQDQVLEQGGLSSLFQALGVSVTPIQKVVLSGENGLKADIHVIIPYEGLSGFQMGLIEMIFKVVYPVDDHHFKIILHYGTLVIDGVTPNMIDYFGRPYPGIAVFDGKQITVTGTLWNGNKIYDERLINPDGSLLFRVTINGVTGWRLCENILA
notes: also called 19 kDa photoprotein
- binding result: binds
